# Assay results taken from the supplement of paper PMC7125110.
# ± gives the standard error. Variants at the floor of the assay were thinned out.
# B1: glmS ribozyme (parent)
# chain: AUAAAAGCGCCAGAACUACAGAAAUGUAGUUGACGAGGAGGAGGUUUAUCGAAUUUUCGGCGGAUGCCUCCAAA
# Experiments:
# Conditions in all cases: with glucosamine-6-phosphate
# glucosamine-6-phosphate [1] = variants of: B1; assay: self-cleavage kobs at 40 uM GlcN6P; higher = faster cleavage; RNA array
# Method in brief: (§1)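 kcat and KM were obtained from weighted Michaelis–Menten fits across concentrations of kobs values. Those came from one- or two-exponential decay fits to per-tile medians normalised to baseline and to non-cleaving reference variants. The variants were barcoded ribozymes transcribed in situ by E. coli RNA polymerase on sequenced MiSeq chips and tracked through a hybridised Cy3 probe at 37 °C, with 40 μM to 10 mM glucosamine-6-phosphate in HEPES/KCl/Mg(OAc)2 buffer flowed in.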
# glucosamine-6-phosphate [2] = variants of: B1; assay: self-cleavage kobs at 2500 uM GlcN6P; higher = faster cleavage; RNA array
# Method in brief: as §1
# glucosamine-6-phosphate [3] = variants of: B1; assay: self-cleavage kobs at 10000 uM GlcN6P; higher = faster cleavage; RNA array
# Method in brief: as §1
# glucosamine-6-phosphate [4] = variants of: B1; assay: self-cleavage kobs at 160 uM GlcN6P; higher = faster cleavage; RNA array
# Method in brief: as §1
# glucosamine-6-phosphate [5] = variants of: B1; assay: self-cleavage kobs at 640 uM GlcN6P; higher = faster cleavage; RNA array
# Method in brief: as §1
Variant,self-cleavage kobs at 40 uM GlcN6P (glucosamine-6-phosphate [1]) [s⁻¹],self-cleavage kobs at 2500 uM GlcN6P (glucosamine-6-phosphate [2]) [s⁻¹],self-cleavage kobs at 10000 uM GlcN6P (glucosamine-6-phosphate [3]) [s⁻¹],self-cleavage kobs at 160 uM GlcN6P (glucosamine-6-phosphate [4]) [s⁻¹],self-cleavage kobs at 640 uM GlcN6P (glucosamine-6-phosphate [5]) [s⁻¹]
C16U A39C,0.000107 ± 1.4e-05,0.00222 ± 0.00082,0.00545 ± 0.0006,–,–
C8A A53C G59A C68A,< 1e-05,–,< 1e-05,–,–
A12U G41U U54A,4.72e-05 ± 1.9e-05,–,0.000602 ± 0.00016,–,–
C10U U65C,< 1e-05,–,< 1e-05,–,–
G7A C8U,< 1e-05,–,–,–,–
A12G C61G,< 1e-05,–,< 1e-05,–,–
A39U G66A,0.000403 ± 0.00015,0.00655 ± 0.0022,0.0134 ± 0.0056,0.000797 ± 0.00024,0.00167 ± 0.00076
G13C G60A U65G G66C C71U,< 1e-05,–,< 1e-05,–,–
G9U G51U,< 1e-05,–,< 1e-05,< 1e-05,< 1e-05
C11A G40U G41U G60C U65C,< 1e-05,–,< 1e-05,–,–
C34A G63U,< 1e-05,–,< 1e-05,< 1e-05,< 1e-05
G40U U56A,6.75e-05 ± 1.3e-05,0.00116 ± 0.00022,0.00344 ± 0.00064,0.000124 ± 3.2e-05,0.000381 ± 4.4e-05
C10U A52C U57G,< 1e-05,< 1e-05,< 1e-05,–,< 1e-05
A12C C70U,0.000475 ± 4e-05,0.0217 ± 0.0053,0.0163 ± 0.0022,0.00111 ± 0.00017,0.00328 ± 0.00037
G32C G35U,< 1e-05,< 1e-05,< 1e-05,< 1e-05,< 1e-05
C11A A48C U55C C61A,< 1e-05,–,–,–,–
U57G C70G,3.7e-05 ± 9.8e-06,8.84e-05 ± 1.5e-05,2.33e-05 ± 1e-05,0.00016 ± 3e-05,0.000103 ± 1.5e-05
G7C C16G U47A,< 1e-05,< 1e-05,< 1e-05,< 1e-05,–
C16U U30A U31G A53U G59U,< 1e-05,< 1e-05,–,–,–
G35C C61G C68G,7.74e-05 ± 3e-05,–,–,–,–
C10U U31C G66U,< 1e-05,–,< 1e-05,< 1e-05,–
C10A G40U U54C,< 1e-05,–,< 1e-05,–,–

Variant,self-cleavage kobs at 40 uM GlcN6P (glucosamine-6-phosphate [1]) [s⁻¹],self-cleavage kobs at 2500 uM GlcN6P (glucosamine-6-phosphate [2]) [s⁻¹],self-cleavage kobs at 10000 uM GlcN6P (glucosamine-6-phosphate [3]) [s⁻¹],self-cleavage kobs at 160 uM GlcN6P (glucosamine-6-phosphate [4]) [s⁻¹],self-cleavage kobs at 640 uM GlcN6P (glucosamine-6-phosphate [5]) [s⁻¹]
U49C U65C,< 1e-05,–,< 1e-05,–,< 1e-05
C11A C16A U47C C61U,< 1e-05,< 1e-05,–,–,–
G7U A14U A48G U56C A64U G66U,< 1e-05,–,< 1e-05,–,–
G9U G35A,< 1e-05,< 1e-05,< 1e-05,< 1e-05,< 1e-05
G43U G44A A48G C58A U69A C71G,< 1e-05,< 1e-05,< 1e-05,< 1e-05,–
U47G C67U,0.000141 ± 2.6e-05,0.00125 ± 0.0002,0.00343 ± 0.00067,0.000305 ± 5.6e-05,0.00064 ± 8.6e-05
A6U C10G A42G C50G C67A C70A,0.000143 ± 4.1e-05,–,9.95e-05 ± 2.4e-05,–,–
A15G G59C,< 1e-05,–,–,< 1e-05,< 1e-05
G13C G43U,< 1e-05,< 1e-05,< 1e-05,–,< 1e-05
G43U U46A U57C C70A,< 1e-05,–,< 1e-05,–,< 1e-05
C16U C34A,< 1e-05,–,–,–,–
A6U A36G A64U,< 1e-05,< 1e-05,< 1e-05,< 1e-05,< 1e-05
C11G A39U G60A,< 1e-05,< 1e-05,–,< 1e-05,< 1e-05
A39C G43C U47C U49C A64U U65A,< 1e-05,–,–,–,–
G37A U57G,< 1e-05,–,–,–,–
A39U A42G U56G A64C,< 1e-05,–,4.69e-05 ± 1.8e-05,–,–
A6G U57G,< 1e-05,< 1e-05,< 1e-05,< 1e-05,< 1e-05
A15G A36G G44U,< 1e-05,< 1e-05,–,–,–
G13U G29U A36U U57G,< 1e-05,–,< 1e-05,–,–
A48C U49G G62A,< 1e-05,–,–,–,–
A33U A42C U47G U54A,< 1e-05,< 1e-05,< 1e-05,–,< 1e-05
G7A G9C C16G,< 1e-05,–,< 1e-05,< 1e-05,< 1e-05

Variant,self-cleavage kobs at 40 uM GlcN6P (glucosamine-6-phosphate [1]) [s⁻¹],self-cleavage kobs at 2500 uM GlcN6P (glucosamine-6-phosphate [2]) [s⁻¹],self-cleavage kobs at 10000 uM GlcN6P (glucosamine-6-phosphate [3]) [s⁻¹],self-cleavage kobs at 160 uM GlcN6P (glucosamine-6-phosphate [4]) [s⁻¹],self-cleavage kobs at 640 uM GlcN6P (glucosamine-6-phosphate [5]) [s⁻¹]
C8U A39C,< 1e-05,< 1e-05,< 1e-05,< 1e-05,< 1e-05
G29A A48U U54A,< 1e-05,–,3.57e-05 ± 1.5e-05,–,–
G32U G44U,< 1e-05,–,–,< 1e-05,< 1e-05
C10G C50G G63A C71U,6.86e-05 ± 1.9e-05,–,5.34e-05 ± 1.7e-05,–,–
G7A G32U U47G C50U G63A C67G,0.000556 ± 0.00014,–,0.000988 ± 0.00041,–,–
G35U A48C,< 1e-05,< 1e-05,< 1e-05,–,–
G43C C58A,< 1e-05,< 1e-05,< 1e-05,< 1e-05,< 1e-05
A15G C71G,0.000107 ± 1.2e-05,0.00214 ± 0.00045,–,0.000256 ± 4.1e-05,0.00066 ± 8.8e-05
G7U A33C,< 1e-05,< 1e-05,< 1e-05,< 1e-05,< 1e-05
A14U C50G C67U,0.00027 ± 6.3e-05,0.000193 ± 5.8e-05,0.000112 ± 1.9e-05,0.000222 ± 7e-05,0.000192 ± 5.6e-05
C50G G66U,0.000495 ± 0.00015,0.000123 ± 5.1e-05,–,–,–
G63U G66U,< 1e-05,< 1e-05,< 1e-05,–,< 1e-05
G43A C50G,< 1e-05,–,< 1e-05,< 1e-05,< 1e-05
G9A G62C,< 1e-05,–,< 1e-05,–,< 1e-05
A36U G38C A53C,< 1e-05,–,–,–,–
A14C A15G C70U,6.72e-05 ± 1.7e-05,0.00207 ± 0.00058,–,0.000124 ± 2.7e-05,0.000547 ± 0.00017
A33U G59C,< 1e-05,–,< 1e-05,–,< 1e-05
G40C G44C,< 1e-05,–,< 1e-05,–,–
A42U G60U,< 1e-05,–,–,< 1e-05,< 1e-05
A12G G35C G60A U65G C68G,0.000127 ± 3.9e-05,0.000384 ± 0.00015,0.000121 ± 4.1e-05,–,–
A42U G62U,< 1e-05,< 1e-05,–,< 1e-05,< 1e-05
C8G G66U,< 1e-05,< 1e-05,–,< 1e-05,< 1e-05

Variant,self-cleavage kobs at 40 uM GlcN6P (glucosamine-6-phosphate [1]) [s⁻¹],self-cleavage kobs at 2500 uM GlcN6P (glucosamine-6-phosphate [2]) [s⁻¹],self-cleavage kobs at 10000 uM GlcN6P (glucosamine-6-phosphate [3]) [s⁻¹],self-cleavage kobs at 160 uM GlcN6P (glucosamine-6-phosphate [4]) [s⁻¹],self-cleavage kobs at 640 uM GlcN6P (glucosamine-6-phosphate [5]) [s⁻¹]
C10G C16G C34U G43C A52C U55C,< 1e-05,–,< 1e-05,–,–
G38U U49A C58A,< 1e-05,–,–,–,–
A6G C50A C70U,< 1e-05,–,–,–,–
G38U U46G,< 1e-05,< 1e-05,–,< 1e-05,–
C50A A53C,< 1e-05,–,–,–,–
A48U C58U,< 1e-05,< 1e-05,< 1e-05,< 1e-05,< 1e-05
G13C G44C,< 1e-05,< 1e-05,< 1e-05,< 1e-05,< 1e-05
A36C U49G A53G,4.33e-05 ± 1.4e-05,–,0.00107 ± 0.00018,–,–
A15U U31A G32A A36U U57A C58G C71U,5.17e-05 ± 2.1e-05,–,0.000109 ± 2.6e-05,–,–
G7U U31A G32U G41U A48U,< 1e-05,–,< 1e-05,–,–
C34G G38A C58U,< 1e-05,–,–,–,–
A64G C68G C71A,< 1e-05,–,< 1e-05,< 1e-05,< 1e-05
G41C C50G,< 1e-05,< 1e-05,< 1e-05,< 1e-05,< 1e-05
A42G G60A U65G,< 1e-05,< 1e-05,–,–,–
C8G G13U G51C A64G,< 1e-05,–,–,–,–
A33G C58A,< 1e-05,–,< 1e-05,–,–
A53C C68A,< 1e-05,–,–,< 1e-05,< 1e-05
G9U A14G G59C C68U,< 1e-05,–,< 1e-05,–,–
A33C G63U C67U,< 1e-05,–,–,–,–
G44C A48U,< 1e-05,< 1e-05,< 1e-05,< 1e-05,< 1e-05
A36C U45G U65C,< 1e-05,< 1e-05,–,–,–
G7U U54C,< 1e-05,–,< 1e-05,< 1e-05,< 1e-05
